Results from patent US8138323.

How the values were obtained:
[1] = target: TNF Binding Protein I (human) (UniProt P19438); assay: solid phase assay, 125I-TBP-I bound to TNF-α with 10 µg/ml IFN-gamma as competitor
[2] = target: Tumor Necrosis Factor (TNF) Binding Protein II (human) (UniProt P20333); assay: solid phase assay, 125I-TBP-II bound to TNF-α with 10 µg/ml IFN-gamma as competitor
[3] = target: Tumor Necrosis Factor (TNF) Binding Protein II (human) (UniProt P20333); assay: solid phase assay, 125I-TBP-II bound to TNF-α with 10 µg/ml IL-1α as competitor
[4] = target: TNF Binding Protein I (human) (UniProt P19438); assay: solid phase assay, 125I-TBP-I bound to TNF-α with 10 µg/ml IL-1α as competitor
[5] = target: TNF Binding Protein I (human) (UniProt P19438); assay: solid phase assay, 125I-TBP-I bound to TNF-α with 10 µg/ml IL-6 as competitor
[6] = target: Tumor Necrosis Factor (TNF) Binding Protein II (human) (UniProt P20333); assay: solid phase assay, 125I-TBP-II bound to TNF-α with 10 µg/ml IL-6 as competitor

IFN-gamma (from UniProt P01579 24-166) (ligand)
bound CPM [1]: 28000 CPM
bound CPM [2]: 18500 CPM

IL-1α (from UniProt P01583 113-271) (ligand)
bound CPM [3]: 17800 CPM
bound CPM [4]: 28100 CPM

IL-6 (from UniProt P05231 30-212) (ligand)
bound CPM [5]: 27000 CPM
bound CPM [6]: 18600 CPM
